Experimental data taken from PMC6939906, “Leucine zipper transcription factor-like 1 binds adaptor protein complex-1 and 2 and participates in trafficking of transferrin receptor 1” (PLoS ONE, 2020).

T1: GST-β1 (glutathione S-transferase fused β1 subunit of AP-1) (human, UniProt Q10567 1-949)
T1 construct: cloned in pGEX-6P-1; also called GST-β1 (AP-1); GST-fused β1 subunit of AP-1; source: E. coli, purified (Glutathione Sepharose 4B)
T1 sequence (looked up): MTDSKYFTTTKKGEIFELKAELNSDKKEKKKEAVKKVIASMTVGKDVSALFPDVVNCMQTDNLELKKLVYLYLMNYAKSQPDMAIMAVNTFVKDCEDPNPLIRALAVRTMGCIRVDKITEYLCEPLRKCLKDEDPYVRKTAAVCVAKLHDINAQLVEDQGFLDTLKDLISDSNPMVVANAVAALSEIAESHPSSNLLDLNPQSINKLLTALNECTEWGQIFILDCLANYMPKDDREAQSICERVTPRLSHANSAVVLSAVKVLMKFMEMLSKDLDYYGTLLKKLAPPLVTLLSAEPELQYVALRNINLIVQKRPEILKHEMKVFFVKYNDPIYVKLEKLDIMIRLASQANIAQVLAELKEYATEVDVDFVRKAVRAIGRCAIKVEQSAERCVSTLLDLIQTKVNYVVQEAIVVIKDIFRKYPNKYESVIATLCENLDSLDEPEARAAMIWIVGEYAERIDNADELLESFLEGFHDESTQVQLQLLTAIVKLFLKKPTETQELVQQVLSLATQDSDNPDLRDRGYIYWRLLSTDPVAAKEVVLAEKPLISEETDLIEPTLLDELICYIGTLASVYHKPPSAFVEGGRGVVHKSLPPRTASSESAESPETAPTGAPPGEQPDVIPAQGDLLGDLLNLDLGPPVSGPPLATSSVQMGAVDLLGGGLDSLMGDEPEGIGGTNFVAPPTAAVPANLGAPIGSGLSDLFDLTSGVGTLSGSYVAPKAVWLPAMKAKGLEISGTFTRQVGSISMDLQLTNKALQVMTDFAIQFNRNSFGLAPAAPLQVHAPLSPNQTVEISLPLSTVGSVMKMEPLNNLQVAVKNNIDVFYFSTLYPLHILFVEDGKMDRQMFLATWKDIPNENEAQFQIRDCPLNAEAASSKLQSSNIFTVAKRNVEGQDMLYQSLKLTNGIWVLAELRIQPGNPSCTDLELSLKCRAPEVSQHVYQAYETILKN

T2: GST-β2 (GST-fused β2 subunit of AP-2) (human, UniProt P63010 1-937)
T2 construct: cloned in pGEX-6P-1; also called GST-β2 (AP-2); AP2B1; source: E. coli, purified (Glutathione Sepharose 4B)
T2 sequence (looked up): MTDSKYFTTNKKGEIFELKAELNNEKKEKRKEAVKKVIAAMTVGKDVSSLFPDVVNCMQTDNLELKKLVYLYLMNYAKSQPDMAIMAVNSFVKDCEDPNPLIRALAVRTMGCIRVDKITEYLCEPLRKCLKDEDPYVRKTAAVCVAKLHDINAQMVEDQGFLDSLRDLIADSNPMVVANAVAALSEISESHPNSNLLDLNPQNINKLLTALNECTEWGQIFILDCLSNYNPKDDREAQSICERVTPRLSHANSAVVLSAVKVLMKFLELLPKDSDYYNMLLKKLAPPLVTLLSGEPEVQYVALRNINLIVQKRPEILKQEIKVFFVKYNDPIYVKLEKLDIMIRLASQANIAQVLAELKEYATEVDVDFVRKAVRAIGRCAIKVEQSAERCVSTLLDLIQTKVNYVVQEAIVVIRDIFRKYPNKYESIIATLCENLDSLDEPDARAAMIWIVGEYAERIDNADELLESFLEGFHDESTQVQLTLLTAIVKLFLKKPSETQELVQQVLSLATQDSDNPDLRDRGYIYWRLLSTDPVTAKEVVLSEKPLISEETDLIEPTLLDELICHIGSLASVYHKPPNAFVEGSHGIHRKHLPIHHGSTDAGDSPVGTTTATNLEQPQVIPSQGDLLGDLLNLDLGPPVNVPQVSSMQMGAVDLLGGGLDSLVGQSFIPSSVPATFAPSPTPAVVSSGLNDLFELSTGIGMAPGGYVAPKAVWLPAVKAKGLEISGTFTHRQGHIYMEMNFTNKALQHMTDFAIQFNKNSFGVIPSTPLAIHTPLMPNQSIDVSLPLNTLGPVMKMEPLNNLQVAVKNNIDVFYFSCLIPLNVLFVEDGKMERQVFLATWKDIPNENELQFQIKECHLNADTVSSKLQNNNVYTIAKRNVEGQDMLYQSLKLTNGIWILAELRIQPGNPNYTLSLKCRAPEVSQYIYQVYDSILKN


What was measured:
Settings in all cases: both partners purified
[1] = target: T1, GST-β1 (glutathione S-transferase fused …); test: pull-down; Factor Xa cleaved MBP-LZTFL1 incubated with GST-fused β1 subunit of AP-1 held on Glutathione Sepharose 4B
[2] = target: T2, GST-β2 (GST-fused β2 subunit of AP-2); test: pull-down; MBP-fused proteins held on amylose resin, purified GST-fused proteins added, overnight at 4°C; blots with anti-MBP and anti-GST
[3] = target: T1, GST-β1 (glutathione S-transferase fused …); test: as above

Binder | binding result [1] | binding result [2] | binding result [3]
LZTFL1 from purified MBP-LZTFL1 cleaved by Factor Xa (natural protein, human, UniProt Q9NQ48-1 1-299, looked up, human LZTFL1, wild type; also called Factor Xa cleaved MBP-LZTFL1; source: E. coli, purified as MBP fusion (amylose resin), cleaved with Factor Xa) MAELGLNEHHQNEVINYMRFARSKRGLRLKTVDSCFQDLKESRLVEDTFTIDEVSEVLNGLQAVVHSEVESELINTAYTNVLLLRQLFAQAEKWYLKLQTDISELENRELLEQVAEFEKAEITSSNKKPILDVTKPKLAPLNEGGTAELLNKEILRLQEENEKLKSRLKTIEIQATNALDEKSKLEKALQDLQLDQGNQKDFIKAQDLSNLENTVAALKSEFQKTLNDKTENQKSLEENLATAKHDLLRVQEQLHMAEKELEKKFQQTAAYRNMKEILTKKNDQIKDLRKRLAQYEPED | binds |  | 
MBP-LZTFL1 (maltose-binding protein fused with human LZTFL1) (natural protein, UniProt Q9NQ48-1 1-299, looked up, human LZTFL1, wild type; cloned in pMAL-c2X; also called MBP-fused LZTFL1; wild-type LZTFL1; source: E. coli, purified (amylose resin)) MAELGLNEHHQNEVINYMRFARSKRGLRLKTVDSCFQDLKESRLVEDTFTIDEVSEVLNGLQAVVHSEVESELINTAYTNVLLLRQLFAQAEKWYLKLQTDISELENRELLEQVAEFEKAEITSSNKKPILDVTKPKLAPLNEGGTAELLNKEILRLQEENEKLKSRLKTIEIQATNALDEKSKLEKALQDLQLDQGNQKDFIKAQDLSNLENTVAALKSEFQKTLNDKTENQKSLEENLATAKHDLLRVQEQLHMAEKELEKKFQQTAAYRNMKEILTKKNDQIKDLRKRLAQYEPED |  | binds | binds
